{"source": "the DeepSol protein solubility set", "data": [{"assay": "soluble on expression in E. coli; label from the status in PepcDB or PDB records", "values": [{"sequence": "MARKNLIGISESPLAPEDGERPAVGRPIAGLAPAQRSTGLVGGITRSLSNITQKVERAEELERQLADGHAIVELDPELIDSSFIIDRLGVAPDVQAMLVQQIRDHGQQVPILVRPHPAESGRYQVAYGHRRLAALREIGIKVKAVIRNLNDEQLVISQGQENNARTDLSFIERALFATRLEDRGFSRDTIMSALGVDKAALSKMIAVVRRLPLDIIEAIGAAPGFGRRRWMELADLIDRDDRRPKALHFIETAAFKALESDQRFEKLFALLSLARKPSKAETWIAPDRSRPVRIRETDAETTLAFSKKAAPGFAEFVRQRLEALYLEYQRETGD", "soluble on expression in E. coli": "not soluble"}, {"sequence": "MGSDKIHHHHHHMSQTTVVNGVNVDQLMATIEQIKAKPEIAQFKFRATNQWMGGTHNQATIKDFYGACAEDDTRKPMVFDLDEPPVLLGENRGANPVEYLLVALSGCLTTSLVAHAAARGIALRGVKSRYEGDIDLRGFLGLSEEVPVGYREIRVFFSIDADLTDGQKEELIRMAQKYSPVYNTVAKPVPVAVLLDRG", "soluble on expression in E. coli": "not soluble"}, {"sequence": "MSLSLSSIIKNIPKAELHLHIEGSLTPELMWRLAEKHSVSLPYASVEEIEAAYNFEDLQSFLDLYYAGAGVLRDEDDFFALMWEYLTRCHEDNIVHTEIMFDPQTHTERDIGFDIFMPGFLKAMEKAKDEYGISSYLIMSFLRHLPEDAAFDTLSAAEPYYEHITAVGLDSSELGHPPSKFERVFKKAKALGFKIVAHAGEEGPASYIWEAIELLDVDRIDHGVRCQEDEALMDLLKERQIPLTVCPLSNLKLCVINDMKDHNIVQLLDAGLLVTVNSDDPTYFGGFLNDNFEALHQSLGIDEKTVRTLVANSFKASFLPQEQKNQLVEKVLSAEGHHHHHH", "soluble on expression in E. coli": "soluble"}, {"sequence": "MGSDKIHHHHHHMPARIQPTARQVRLGAELRKLRDAAGLTSRQAAALLGTNPAQMSQIEAGNAGVSGERVRKLGVQYASADMELVDALVEMATDRTRGWWEEYRDVLPPVFQDLAELEHHATFMRVVGTVHVPGLLQTQEYARAVFAYVVPELPVDELDLRVRHRMRRKLVLSERTVPYEAVIHESVLRTRVADRRVAVAQLDELLSQSERPNVSLRVIPFGVDGFAGAGAMMLYAGGRVPALDTVQRDAPYGSVFLDASAQLLAMRTLFRRVESAALPPAKSRDYIHRLTKEL", "soluble on expression in E. coli": "not soluble"}, {"sequence": "MNKISPLGSNWNEFEQQIFNEEEIRESNLRVALIKELITSRQQLGISQKQLETLSGVKQPMIARIEKGQTNPQLETLLKLLAPLGKTLSIVPLRVKNA", "soluble on expression in E. coli": "not soluble"}, {"sequence": "WVQPITAQKPSLTLWLDDKMFTGLINTGADVTIIKLEDWPPNWPITDTLTNLRGIGQSNNPKQSSKYLTWRDKENNSGLIKPFVIPNLPVNLWGRDLLSQMKIMMAS", "soluble on expression in E. coli": "soluble"}, {"sequence": "MASTAAETEKPEDHNDLVQLCNPHIAAMKEDILYHFSLSTSTHDFPAMFGDVKFVCVGGSPSRMKAFIKYVAMELGFAHPGADYPNICEGTDRYAMFKVGPVLSVSHGMGVPSIAIMLHELIKLLYHAHCSGVTLIRIGTSGGIGLEPGSVVITRQAVDPCFKPEFEQIVLGKREVRNTDLDEQLVQELARCSAELGEFPTVVGNTMCTLDFYEGQGRLDGALCSYTEKDKQDYLRAAYAAGIRNIEMEASVFAAMCNACGLRAAVVCVTLLNRLEGDQISSPHDVLAEYQQRPQRLVGQFIKKRLMQA", "soluble on expression in E. coli": "soluble"}, {"sequence": "MAGDPMKSPCILLIIVCTLSLTGCASTKQADSDSSLGKAQQTLDSLYQHYSAKDSYLLRENYPFNEQYKVTYLASENQTNMPNQFSYLWPYSGTFSAVNSLLEATHDKKYQQLLEKQVLPGLEEYFDTERTPIAYSSYIRTAPTSDRFYDDNIWVGIDFIDIYQITKEKKYLDKAQLIWNFIESGTDSLLGDGIYWCEQKKESKNTCSNAPGSVFALKLFKATNDSLYFKRGKELYKWTQKNLQDSTDYLYFDNIRLDGKIGKAKFAYNSGQMMQSAALLYQLTKNPDYLKDAQSIAKECYNYFFTDFTTDTGESLKMLKQGNIWFTAVMLRGFIELYQLDQNKTFIDAFNQCLSYAWDNARDENGLFSTDLTGNNNNEKKWLLTQAAMVEMYSRLATIQLEHHHHHH", "soluble on expression in E. coli": "soluble"}, {"sequence": "MVADVKSPAGLAAFNTTLAEQAFATGFVLSGEDAQLFAALGSAPNASTYPNVARWYANVASYTDAERKTWASAGGSAPAAAAADGDDFDLFGSDDEEEDAEKAKIVEERLAAYAEKKAKKAGPIAKSSVILDVKPWDDETDLGEMEKLVRSIEMDGLVWGGAKLIPIGYGIKKLQIITVIEDLKVSVDDLIEKITGDFEDHVQSVDIVAFNKI", "soluble on expression in E. coli": "not soluble"}, {"sequence": "MAHHHHHHMKNKNKYDYLLKLLLVGDSSVGKSSILCRYSDNQFEEKVLSTIGIDFKVKYLKIDNKTIKVGIWDTAGQERFRTLTSAYYRNAHAIILVYDCTVRESFENLDVWINEIDKYSTNKNAIKMLVANKIDKPNHEVTKDEGKNFAFENNMLFCETSAKNDINITYCFEELIQQILNNPSLLELSIVTKNLKLGKKEESRSNCAC", "soluble on expression in E. coli": "soluble"}, {"sequence": "MGSDKIHHHHHHMENVVPPFKVDVAGTFLLPAALREAREQYRNEQISLLTLRAVEDAEIRNLVDRLKAEGLKVVTDGRFRSDAWPLDFMCGLDGIRFRDDRKTSVELTGRIDVHHHPVLDDFVFLTGVTGGDVIAKQVLPAPSRLLAELMKDANRTELDSVYPDREILLVDLAQTYQKLIMELYRSGCRYLQLDDATRTVTDNAIRVNNMALENLPADLFIAFHSPTEMLFSLQGIHAFFLDYDSECCGKNRLLWFIREKQSVFGFVLSHYPVEEELEELRAKIDQIIRYIPSHRFSLCIPNAEVLPSESYEAAEEKQWHTLKMAEMVAGELWPEEG", "soluble on expression in E. coli": "not soluble"}, {"sequence": "MGFQLRGDYLLDDDLQTLYVSSSDIHGELTRLVKLNLTRNQVNVLKHSKADVPELRILSDKLDRRTLSLFSNGQVAEYELIYSVHYQVRFTGEDARDFRFELYRDYQDDPNIALAKSRELSLLLSEMRTSAADKILRDLARIQRLEHHHHHH", "soluble on expression in E. coli": "soluble"}, {"sequence": "MMEIRLTELKDLPLVMEIYDYARAFMRANGNATQWIDGYPSESFIRQEIEDGHSFVCTDEQGEILGTFCFILGEDPTYLNIYEGAWLNDEPYGVIHRMATSGKRKGVSEACLNWCFEHFENIRVDTHRDNKVMQHILAKYGFQRCGIIYVKNGTERIAYQRIL", "soluble on expression in E. coli": "not soluble"}, {"sequence": "MQYLEKKEIKEIQLALLDYIDETCKKHDIPYFLSYGTMLGAIRHKGMIPWDDDIDISLYREDYERLLKIIEEENHPRYKVLSYDTSSWYFHNFASILDTSTVIEDHVKYKRHDTSLFIDVFPIDRFTDLSIVDKSYKYVALRQLAYIKKSRAVHGDSKLKDFLRLCSWYALRFVNPRYFYKKIDQLVKNAVTNTPQYEGGVGIGKEGMKEIFPVDTFKELILTEFEGRMLPVPKKYDQFLTQMYGDYMTPPSKEMQEWYSHSIKAYRKNLEHHHHHH", "soluble on expression in E. coli": "soluble"}, {"sequence": "MQHEEGNRQRPQGELLLRTVAMPRDTNPNQDIFGGWIMSQMDLGGGILAAEIARGRIVTVAVQEMNFIRPVKVGNVVCCYGHCVRVGNTSLQLKVEVWVKTLMNDCVTEDRHLVTEAVFTYVAIDAEGNPRPIPKEGNPILAGLLPTPLEHHHHHH", "soluble on expression in E. coli": "soluble"}, {"sequence": "MGSDKIHHHHHHMRPVDKGKDLGSFKPYNKACAPLQDRLGEYCSYCERWIAAAIEVEHILPKKANPSQKYRWSNFLLACKNCNTGKGSDQIIVTDYLWPDLDNTFLAFCYDDEGRAYPNPRLPPAILEKAKATWTLTNLNWHPDTTFTGMVAPSEKDHRHSHRKQAWIYASDKRNQLLQYDTPDRRVSVAKDALQRGMFSVWMTVFNTTSELDREIRRLLIENFVGTATNCFDRLGNAHRSSTGQI", "soluble on expression in E. coli": "not soluble"}, {"sequence": "MHHHHHHSSGRENLYFQGMEELIPLVNRLQDAFSALGQSCLLELPQIAVVGGQSAGKSSVLENFVGRDFLPRGSGIVTRRPLVLQLITSKAEYAEFLHCKGKKFTDFDEVRLEIEAETDRVTGMNKGISSIPINLRVYSPHVLNLTLIDLPGITKVPVGDQPPDIEYQIREMIMQFITRENCLILAVTPANTDLANSDALKLAKEVDPQGLRTIGVITKLDLMDEGTDARDVLENKLLPLRRGYVGVVNRSQKDIDGKKDIKAAMLAERKFFLSHPAYRHIADRMGTPHLQKVLNQQLTNHIRDTLPNFRNKLQGQLLS", "soluble on expression in E. coli": "soluble"}, {"sequence": "MGSDKIHHHHHHSEENESSGTIEMNQLPGTAQSFLSNYFPGQTPEKIERTNTDQENARLLYRVVFPNEVKVEFSENGGWKRLMIPDQKLPGSLDSLWGKIIEYVQQLFPDDPFIGIENACYGDCVLLSSGKKIAFYYDGTCIGYEMDIKDESGVPQPVRDFVATYFPDGVFQAVVEHIPNENVTAGYSFWLENGFKCVLNDRGQWTEVNGGTELLPVSILETLPAKVTEQLYRDYPAAQVTYIRLEGTCYTIQVSKTVYVTIDPESKPIVVPVMQAQALAEEYFGKLRSISISHPLHTDVLNFKVCLPNGFNMLVNEDASEWLNIDGNGFAFPEKLVASLPEKITEYISAHSNSEITRVDRSVAASFLVELTNGDGLMFDSQGGFLGKEKIELSISEKTYRYMRHQFPDDLNMYFSSYSIEGWIYKLGDGSQVRFDRDGNFVEMIAAAK", "soluble on expression in E. coli": "not soluble"}, {"sequence": "MTQATTRICILGGGFGGLYTALRLSQLPWESTPKPEIILVDQSDRFLFSPFLYELLTGELQAWEIAPPYQELLQGTGVRFHQAVVSEIDTDKQQVQLQNGLEIAYDRLVLALGGETPLDLVPGATTYAHHFRSITEVYRLEESLRVLEASETEKIRIAIVGAGYSGVELACKLADRIGEKGRFRLIEISDQILRTSPEFNRQAAKKALETRGVFIDLETKVVSIGENTISLEYKTQVDEIPVDLVIWTVGTRVAPLVKTLPLKQNQRGQITTTSKLQVLEHPEIFALGDLADCLDTEGKQVPATAQVAFQQADYTAWNIWASLTNRPLLPFRYQQLGEMMALGVDNATLTGLGIKLDGSLAYIARRLAYLYRLPTLEHQLKVGFSWLVSPIIKTLSQ", "soluble on expression in E. coli": "not soluble"}, {"sequence": "GPGSMKEIILYTRPNCPYCKRARDLLDKKGVKYTDIDASTSLRQEMVQRANGRNTFPQIFIGDYHVGGCDDLYALENKGKLDSLLQDVH", "soluble on expression in E. coli": "soluble"}, {"sequence": "MGSDKIHHHHHHMIESIQELLQKEAQAVLNIPVTDAYEKAVELIVEQIHRKKGKLVTSGMGKAGQIAMNIATTFCSTGIPSVFLHPSEAQHGDLGILQENDLLLLISNSGKTREIVELTQLAHNLNPGLKFIVITGNPDSPLASESDVCLSTGHPAEVCTLGMTPTTSTTVMTVIGDILVVQTMKRTEFTIEEYSKRHHGGYLGEKSRKLCVK", "soluble on expression in E. coli": "not soluble"}, {"sequence": "MHTFYLPFILSLSMPPKKKSSKTIYKFPQSFHDLPKSLSKNYYQPEPESIINDQIIIIKNFFNKDLCNELIKSFETQLNMETTPLIKSKEYAARFNDRSSMNDLLSANILWQYLQKILLDNPYNDEDLKEINQIFQDAVGLNPQLRVYRYTRGHHFGKHYDDSVICPIPPQGTKKGYTTWTLLIYLTGDEEFKGGGTIFYPEIKNIKPLNIHPNKGMALLHKHGDDCLKHEAEMVANGAKWVLRSDVVFPI", "soluble on expression in E. coli": "soluble"}]}]}
